Measurements from publication PMC5057043.
pKd: −log10 of the molar value.

Columns and labels:
[1] = molecular target: Frizzled-7 (microscale thermophoresis) (UniProt O75084); assay: MST
[2] = molecular target: Frizzled-10 (microscale thermophoresis) (UniProt Q9ULW2); assay: MST
Frizzled-10 (microscale thermophoresis), sequence (Q9ULW2 21-581): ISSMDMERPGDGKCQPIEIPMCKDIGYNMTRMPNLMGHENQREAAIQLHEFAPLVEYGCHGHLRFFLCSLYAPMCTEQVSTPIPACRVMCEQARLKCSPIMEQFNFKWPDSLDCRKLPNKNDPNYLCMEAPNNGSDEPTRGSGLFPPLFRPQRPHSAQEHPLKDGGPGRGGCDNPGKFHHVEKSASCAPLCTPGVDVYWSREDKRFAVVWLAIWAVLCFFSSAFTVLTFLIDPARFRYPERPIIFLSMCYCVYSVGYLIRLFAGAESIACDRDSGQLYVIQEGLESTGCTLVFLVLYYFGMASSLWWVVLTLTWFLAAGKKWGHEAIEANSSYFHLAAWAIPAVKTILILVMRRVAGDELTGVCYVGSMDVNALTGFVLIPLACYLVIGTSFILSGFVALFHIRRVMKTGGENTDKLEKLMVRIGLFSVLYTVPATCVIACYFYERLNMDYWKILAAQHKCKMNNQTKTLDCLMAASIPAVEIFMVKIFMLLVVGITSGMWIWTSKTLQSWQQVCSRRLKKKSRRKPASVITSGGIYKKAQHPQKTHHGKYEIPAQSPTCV

Human OLFM4 protein, sequence (Q6UX06 21-510): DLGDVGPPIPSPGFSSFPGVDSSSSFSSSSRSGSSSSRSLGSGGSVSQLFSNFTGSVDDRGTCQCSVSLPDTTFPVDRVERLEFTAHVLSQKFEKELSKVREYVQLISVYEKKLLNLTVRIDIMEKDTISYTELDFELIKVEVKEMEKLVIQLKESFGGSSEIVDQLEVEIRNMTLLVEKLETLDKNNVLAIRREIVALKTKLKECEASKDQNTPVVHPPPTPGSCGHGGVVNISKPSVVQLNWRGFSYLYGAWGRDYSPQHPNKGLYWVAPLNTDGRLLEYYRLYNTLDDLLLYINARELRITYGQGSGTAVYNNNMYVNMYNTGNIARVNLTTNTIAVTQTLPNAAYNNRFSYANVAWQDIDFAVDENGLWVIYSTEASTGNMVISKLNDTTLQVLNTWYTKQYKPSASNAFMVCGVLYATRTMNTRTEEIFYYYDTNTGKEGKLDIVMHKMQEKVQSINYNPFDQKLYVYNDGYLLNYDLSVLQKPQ

- pKd [1]: 5.60
- pKd [2]: 5.00
Substance: Human OLFM4 protein (from UniProt Q6UX06 21-510) (natural protein)
